Data as given in the RNAGym collection of RNA variant scans (doi:10.1073/pnas.2313332121).
Fewer inactive variants are shown than the library holds.

B1: TPR 5TU (parent)
chain: GGAUCUUCUCGAUCUAACAAAAAAGACAAAUCUGCCACAAAGCUUGAGAGCAUCUUCGGAUGCAGAGGCGGCAGCCUUCGGUGGCGCGAUAGCGCCAACGUUCUCAACUAUGACACGCAAAACGCGUGCUCCGUUGAAUGGAGUUUAUCAUG

Variants of: B1
Assay: polymerase ribozyme fitness, log enrichment relative to wild type (log ratio); higher = more active; in vitro selection for triplet polymerase activity
Outline: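 Fitness measures genotype enrichment against wild-type enrichment on a logarithmic scale, with inverse-variance-weighted averaging of replicates. The logarithm is base 2, and genotypes were kept only with ≥10 input reads and ≥1 read per output in Illumina sequencing. The sequenced libraries came from one triplicate in vitro selection round, including frozen incubation at −7 °C, of PCR-built, transcribed mutant libraries of each subunit of a heterodimeric triplet polymerase ribozyme.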

Row | Variant | polymerase ribozyme fitness (log ratio)
1 | A19U G86U | -1.75
2 | A60G C114U | -1.83
3 | C95U U104G | -2.11
4 | A41U C105G | -1.73
5 | U82A A113C G117U G141C | ≤ -4.2
6 | C99U G141A | -0.231
7 | A41U G80A | -0.78
8 | A24U C35U C75U | -2.19
9 | A28U C95A | -3.41
10 | C14U G74A C99A | ≤ -4.2
11 | C27G G67C C85A | ≤ -4.2
12 | C38A G70A C85G U127C | ≤ -4.2
13 | U55A C76A A115G A121C | -1.09
14 | C72U A89G C95A | -1.39
15 | A37C C38U G71A U109G C123G | ≤ -4.2
16 | A21G G70A | -3.35
17 | U9G U15C A19U C35G A113U C132U | ≤ -4.2
18 | C93G A107U | -4.14
19 | C57A C72G U77A C87A U127A G136A | ≤ -4.2
20 | G84A G88A U148G | ≤ -4.2
21 | U61G C116A | -0.386

Row | Variant | polymerase ribozyme fitness (log ratio)
22 | U102G A120U | -1.94
23 | C8G C63U G68A G92A A107U A142G | ≤ -4.2
24 | A12U C35G C36G U55G G86U | ≤ -4.2
25 | U13G A24U A28U A29U C54U C69A C76G G94U A97C U135C | ≤ -4.2
26 | A91G C108U C116G G152A | -3.48
27 | A23G A73U G81C | -4.17
28 | G46U C99U | -1.06
29 | C63U A64G G83C | ≤ -4.2
30 | C27U A120G C125A | -1.81
31 | A40U C95U C129A U134C | -3.65
32 | U109A G124A G140C | ≤ -4.2
33 | G42A G83U A97U | ≤ -4.2
34 | G100A A107U | ≤ -4.2
35 | A60C A91U | ≤ -4.2
36 | C5G A147C | -0.562
37 | C96A U134A | -2.73
38 | A19G G84U | -2.39
39 | U13G U31C A40G G58U U78C C85G C114U G141U | ≤ -4.2
40 | C96A U146A U148A | -4.17
41 | A40C C57U | 0.521
42 | C85G G141A | -2.85

Row | Variant | polymerase ribozyme fitness (log ratio)
43 | A52C C108A | ≤ -4.2
44 | U6G A26U G84C | -2.97
45 | C76A A91C G128C G143A | ≤ -4.2
46 | A22G U144C | 0.51
47 | A23G U44A G88A | -4.1
48 | C75U U82C C116A | 0.695
49 | C75A U144G | ≤ -4.2
50 | C5G A24U G81C | -0.313
51 | C5G C8A C27U A49C U56A G94A C95G U109G | ≤ -4.2
52 | G58A U101G C132G G133C A142C | -3.72
53 | A20C C75A C96U C118G G141A | ≤ -4.2
54 | A37C C54G G92U A97U A119U | ≤ -4.2
55 | G92C U135C | -2.88
56 | A30U G74A C93G C103A A106G A113U | ≤ -4.2
57 | C93U G133U | -3.7
58 | A52G G58C G59C C96G A150U | -3.59
59 | U56A U130A | -2.03
60 | C14G C18U A22C A40C U53A C75A U77A G94C G117U A119G C149G | ≤ -4.2
61 | U31G C57G G88U | ≤ -4.2
62 | A73G C85U U102G G124A | ≤ -4.2
63 | A30C C79U A91G C114U G136C | ≤ -4.2

Row | Variant | polymerase ribozyme fitness (log ratio)
64 | U9G C96U A97G C103G A115U U127A | ≤ -4.2
65 | A20C A28U A49C U61A G92A A113G C149G | ≤ -4.2
66 | U6A A17U G65A G83A G84U C87A G100A G141A | ≤ -4.2
67 | G74C C99U A142U U146A | ≤ -4.2
68 | C18G C36A C96U A138U | -4.03
69 | A21C C32G A37U A49G C57U C75G G84A A107C A147U | ≤ -4.2
70 | C36U U56G A60C U61G C79U C93U C99U G112C U144A A150C | ≤ -4.2
71 | A49G G59U A97U G143A | -3.58
72 | C57G G59A G80U G92U C99A C131U U135A | -3.22
73 | A22U A49U G81U G86C G141C | -4.13
74 | U7A A22C A28C A60C G92A G143C A147G | ≤ -4.2
75 | C5U U9C A29C C93U C103U G126U | ≤ -4.2
76 | A41U C95U A98C | -1.48
77 | A26G G59U | -3.78
78 | C85G G100A | ≤ -4.2
79 | A17C G58U G128A A138U | -4.13
80 | A12U A39U U53G G126U | -4.09
81 | G59C A60U | 0.153
82 | A16G C18U U31G C35A C43A C95G C103U | ≤ -4.2
83 | C93U U151A | ≤ -4.2
